Patent publication CN113150152A (UNIV XI AN JIAOTONG, dated 2021)

Key:
[1] = target: T1, 人TIM-3重组蛋白 (T cell immunoglobulin domain and mucin domain-3) (human, UniProt Q8TDQ0 22-202, limits assumed); experiment: ELISA, coated TIM-3 recombinant protein, serially diluted nanobody, anti-his detection, GraphPad least-squares fit
T1 construct: Recombinant protein coated on 96-well plates; The construct is not described; also called TIM-3蛋白

[2] = target: T1, 人TIM-3重组蛋白 (T cell immunoglobulin …); experiment: same number as the ELISA EC50 of paragraph 67, here called KD

B1: NbR2G3 (抗人源T细胞表面抑制性分子TIM-3的特异性纳米抗体) (VHH)
VHH: QVQLVESGGGLVQAGGSLRLSCAASGRTISNYNMGWFRQAPGKEREFAAITRSGGSTYYADSAKGRFTISRDNAKNTVYLQMNSLKPDDTAVYYCDAIPEGLVGRNLGYWGQGTQVTVSS
[1]
  EC50: 76 nM
[2]
  Kd: 76 nM
